Measurements published in IntAct's records for PubMed 29849149.

B1: Beclin-1 (Mus musculus), O88597 (parent)
chain: MEGSKASSSTMQVSFVCQRCSQPLKLDTSFKILDRVTIQELTAPLLTTAQAKPGETQEEEANSGEEPFIETRQDGVSRRFIPPARMMSTESANSFTLIGEASDGGTMENLSRRLKVTGDLFDIMSGQTDVDHPLCEECTDTLLDQLDTQLNVTENECQNYKRCLEILEQMNEDDSEQLQRELKELALEEERLIQELEDVEKNRKVVAENLEKVQAEAERLDQEEAQYQREYSEFKRQQLELDDELKSVENQVRYAQIQLDKLKKTNVFNATFHIWHSGQFGTINNFRLGRLPSVPVEWNEINAAWGQTVLLLHALANKMGLKFQRYRLVPYGNHSYLESLTDKSKELPLYCSGGLRFFWDNKFDHAMVAFLDCVQQFKEEVEKGETRFCLPYRMDVEKGKIEDTGGSGGSYSIKTQFNSEEQWTKALKFMLTNLKWGLAWVSSQFYNK

Variants of: B1
Details: with bcl2_mouse Bcl2, P10417
bcl2_mouse Bcl2, P10417, sequence (P10417 whole entry): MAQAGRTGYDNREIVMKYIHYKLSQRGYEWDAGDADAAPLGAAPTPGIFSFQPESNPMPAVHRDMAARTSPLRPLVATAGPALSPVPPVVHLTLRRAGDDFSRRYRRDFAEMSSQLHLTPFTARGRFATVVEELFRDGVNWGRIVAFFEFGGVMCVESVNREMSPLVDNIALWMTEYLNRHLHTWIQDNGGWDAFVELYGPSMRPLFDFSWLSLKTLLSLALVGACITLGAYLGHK

Variant | effect of a mutation on the interaction
MEGSKASSSTMQVSFVCQRCSQPLKLDTSFKILDRVTIQELTAPLLTTAQAKPGETQEEEANSGEEPFIETRQDGVSRRFIPPARMMSTESANSFTLIGEASDGGTMENLSRRLKVTGDLADIMSGQTDVDHPLCEECTDTLLDQLDTQLNVTENECQNYKRCLEILEQMNEDDSEQLQRELKELALEEERLIQELEDVEKNRKVVAENLEKVQAEAERLDQEEAQYQREYSEFKRQQLELDDELKSVENQVRYAQIQLDKLKKTNVFNATFHIWHSGQFGTINNFRLGRLPSVPVEWNEINAAWGQTVLLLHALANKMGLKFQRYRLVPYGNHSYLESLTDKSKELPLYCSGGLRFFWDNKFDHAMVAFLDCVQQFKEEVEKGETRFCLPYRMDVEKGKIEDTGGSGGSYSIKTQFNSEEQWTKALKFMLTNLKWGLAWVSSQFYNK [F121A] | decreasing interaction strength
